Drawing on patent US20140363428A1 (Chugai, published 2014), this text covers Kd for 10 molecules.

Test [1] has as its target T1, soluble human FcRn (heterodimer of FcRn alpha chain and beta2-microglobulin) (human, UniProt P55899 24-297; P61769 21-119).
T1 construct: Signal regions are part of the expressed constructs; also called hFcRn
In words: SPR (Biacore), hFcRn, measured in multiplicates; n=12.

For test [2], the target named is T2, soluble human FcRn (human, UniProt P55899 24-297; P61769 21-119).
T2 construct: Heterodimer of alpha chain and beta2-microglobulin; also called hFcRn
T2 sequence (P55899 24-297 limits assumed, chain 1 of 2): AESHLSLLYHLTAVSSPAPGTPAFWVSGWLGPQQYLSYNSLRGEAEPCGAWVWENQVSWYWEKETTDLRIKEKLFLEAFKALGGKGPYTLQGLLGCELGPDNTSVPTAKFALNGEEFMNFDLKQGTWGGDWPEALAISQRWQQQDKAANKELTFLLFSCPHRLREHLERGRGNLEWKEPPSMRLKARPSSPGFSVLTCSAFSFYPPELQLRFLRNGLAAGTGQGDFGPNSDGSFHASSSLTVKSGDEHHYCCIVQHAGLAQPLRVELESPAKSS
T2 sequence (P61769 21-119 limits assumed, chain 2 of 2): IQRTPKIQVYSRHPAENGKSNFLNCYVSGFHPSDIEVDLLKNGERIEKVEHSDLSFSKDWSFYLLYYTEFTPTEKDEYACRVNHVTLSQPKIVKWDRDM
In words: SPR (Biacore), pH 7.0. On the technique in general: SPR reads the build-up and loss of mass on a sensor chip optically.

Test [3] deals with T2, soluble human FcRn. As to the kind of experiment: SPR (Biacore), pH 7.0. The source holds these as a separate data set.
For test [4], the target named is T2, soluble human FcRn. In words: SPR (Biacore), pH 6.0.
In test [5] the target is T2, soluble human FcRn. In words: SPR (Biacore), pH 6.0; pH 6.0 (acidic pH, not neutral pH).
The target of test [6] is T1, soluble human FcRn (heterodimer of FcRn …). As to the kind of experiment: SPR (Biacore), hFcRn, measured in multiplicates; n=7.

T1 sequence (P55899 24-297 limits assumed, chain 1 of 2): as the sequence (P55899 24-297 limits assumed, chain 1 of 2) above
T1 sequence (P61769 21-119 limits assumed, chain 2 of 2): as the sequence (P61769 21-119 limits assumed, chain 2 of 2) above

B1: Fv-4-F11 (antibody, human IgG1, kappa)
heavy: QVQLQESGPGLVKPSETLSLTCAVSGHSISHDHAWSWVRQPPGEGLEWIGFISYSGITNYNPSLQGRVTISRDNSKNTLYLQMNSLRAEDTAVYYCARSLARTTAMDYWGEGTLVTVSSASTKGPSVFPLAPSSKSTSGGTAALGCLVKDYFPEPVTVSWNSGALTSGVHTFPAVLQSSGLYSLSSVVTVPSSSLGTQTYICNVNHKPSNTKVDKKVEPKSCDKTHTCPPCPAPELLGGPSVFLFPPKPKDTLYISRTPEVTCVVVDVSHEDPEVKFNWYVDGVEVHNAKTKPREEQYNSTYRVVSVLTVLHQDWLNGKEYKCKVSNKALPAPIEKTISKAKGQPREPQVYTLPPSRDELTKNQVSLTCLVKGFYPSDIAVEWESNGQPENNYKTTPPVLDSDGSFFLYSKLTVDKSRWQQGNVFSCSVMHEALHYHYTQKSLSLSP
light: DIQMTQSPSSLSASVGDSVTITCQASTDISSHLNWYQQKPGKAPELLIYYGSHLLSGVPSRFSGSGSGTDFTFTISSLEAEDAATYYCGQGNRLPYTFGQGTKVEIERTVAAPSVFIFPPSDEQLKSGTASVVCLLNNFYPREAKVQWKVDNALQSGNSQESVTEQDSKDSTYSLSSTLTLSKADYEKHKVYACEVTHQGLSSPVTKSFNRGEC
notes: VH3-F11 (M252Y/N434Y) and VL3-CK
As a reminder, the Kd is the equilibrium constant for the complex coming apart. As for B1, the affinity in test [1], expressed as Kd, was 310 nM.

B2: Fv-4-F890 (antibody, human IgG1, kappa)
heavy: QVQLQESGPGLVKPSETLSLTCAVSGHSISHDHAWSWVRQPPGEGLEWIGFISYSGITNYNPSLQGRVTISRDNSKNTLYLQMNSLRAEDTAVYYCARSLARTTAMDYWGEGTLVTVSSASTKGPSVFPLAPSSKSTSGGTAALGCLVKDYFPEPVTVSWNSGALTSGVHTFPAVLQSSGLYSLSSVVTVPSSSLGTQTYICNVNHKPSNTKVDKKVEPKSCDKTHTCPPCPAPELLGGPSVFLFPPKPKDTLYISRTPEVTCVVVDVSHEDPEVKFNWYVDGVEVHNAKTKPREEQYNSTYRVVSVLTVLHQDWLNGKEYKCKVSNKALPAPIEKTISKAKGQPREPQVYTLPPSRDELTKNQVSLTCLVKGFYPSDIAVEWESNGQPENNYKTTPPVLDSDGSFFLYSKLTVDKSRWQQGNVFSCSVMHEALHYHVTQKSLSLSP
light: DIQMTQSPSSLSASVGDSVTITCQASTDISSHLNWYQQKPGKAPELLIYYGSHLLSGVPSRFSGSGSGTDFTFTISSLEAEDAATYYCGQGNRLPYTFGQGTKVEIERTVAAPSVFIFPPSDEQLKSGTASVVCLLNNFYPREAKVQWKVDNALQSGNSQESVTEQDSKDSTYSLSSTLTLSKADYEKHKVYACEVTHQGLSSPVTKSFNRGEC
notes: M252Y/N434Y/Y436V (EU)
In the case of B2, the values for the Kd in the test with soluble human FcRn [2] and with soluble human FcRn [3] were 107 nM and 110 nM, respectively.

B3: Fv-4-F1115 (antibody, human IgG1, kappa)
heavy: QVQLQESGPGLVKPSETLSLTCAVSGHSISHDHAWSWVRQPPGEGLEWIGFISYSGITNYNPSLQGRVTISRDNSKNTLYLQMNSLRAEDTAVYYCARSLARTTAMDYWGEGTLVTVSSASTKGPSVFPLAPSSKSTSGGTAALGCLVKDYFPEPVTVSWNSGALTSGVHTFPAVLQSSGLYSLSSVVTVPSSSLGTQTYICNVNHKPSNTKVDKKVEPKSCDKTHTCPPCPAPELLGGPSVFLFPPKPKDTLYISRTPEVTCVVVDVSHEDPEVKFNWYVDGVEVHNAKTKPREEQYNSTYRVVSVLTVLHQDWLNGKEYKCKVSNKALPAPIEKTISKAKGQPREPQVYTLPPSRDELTKNQVSLTCLVKGFYPSDIAVEWESNGQPENNYKTTPPVLDSDGSFFLYSKLTVDKSRWQQGNVFNCSVMHEALHYHVTQKSLSLSP
light: DIQMTQSPSSLSASVGDSVTITCQASTDISSHLNWYQQKPGKAPELLIYYGSHLLSGVPSRFSGSGSGTDFTFTISSLEAEDAATYYCGQGNRLPYTFGQGTKVEIERTVAAPSVFIFPPSDEQLKSGTASVVCLLNNFYPREAKVQWKVDNALQSGNSQESVTEQDSKDSTYSLSSTLTLSKADYEKHKVYACEVTHQGLSSPVTKSFNRGEC
On to B3, for which, in the test with soluble human FcRn [3], binding was put at a Kd of 130 nM.

B4: Fv-4-N434H (antibody, human IgG1, kappa)
heavy: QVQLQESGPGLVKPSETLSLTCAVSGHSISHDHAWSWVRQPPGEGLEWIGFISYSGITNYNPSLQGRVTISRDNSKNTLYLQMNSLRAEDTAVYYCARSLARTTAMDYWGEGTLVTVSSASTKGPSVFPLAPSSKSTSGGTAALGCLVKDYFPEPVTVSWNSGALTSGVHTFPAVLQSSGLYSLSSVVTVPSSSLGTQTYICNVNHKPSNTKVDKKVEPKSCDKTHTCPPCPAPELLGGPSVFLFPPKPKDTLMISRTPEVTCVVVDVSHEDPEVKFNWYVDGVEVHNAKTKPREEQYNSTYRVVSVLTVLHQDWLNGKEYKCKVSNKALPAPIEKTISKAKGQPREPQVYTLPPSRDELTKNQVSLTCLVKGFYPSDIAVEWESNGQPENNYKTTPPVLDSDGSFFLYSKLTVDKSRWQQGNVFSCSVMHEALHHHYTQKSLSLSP
light: DIQMTQSPSSLSASVGDSVTITCQASTDISSHLNWYQQKPGKAPELLIYYGSHLLSGVPSRFSGSGSGTDFTFTISSLEAEDAATYYCGQGNRLPYTFGQGTKVEIERTVAAPSVFIFPPSDEQLKSGTASVVCLLNNFYPREAKVQWKVDNALQSGNSQESVTEQDSKDSTYSLSSTLTLSKADYEKHKVYACEVTHQGLSSPVTKSFNRGEC
For the molecule B4, in the test with soluble human FcRn [4], the affinity, expressed as Kd, was 430 nM.

B5: Fv-4-YTE (antibody, human IgG1, kappa)
heavy: QVQLQESGPGLVKPSETLSLTCAVSGHSISHDHAWSWVRQPPGEGLEWIGFISYSGITNYNPSLQGRVTISRDNSKNTLYLQMNSLRAEDTAVYYCARSLARTTAMDYWGEGTLVTVSSASTKGPSVFPLAPSSKSTSGGTAALGCLVKDYFPEPVTVSWNSGALTSGVHTFPAVLQSSGLYSLSSVVTVPSSSLGTQTYICNVNHKPSNTKVDKKVEPKSCDKTHTCPPCPAPELLGGPSVFLFPPKPKDTLYITREPEVTCVVVDVSHEDPEVKFNWYVDGVEVHNAKTKPREEQYNSTYRVVSVLTVLHQDWLNGKEYKCKVSNKALPAPIEKTISKAKGQPREPQVYTLPPSRDELTKNQVSLTCLVKGFYPSDIAVEWESNGQPENNYKTTPPVLDSDGSFFLYSKLTVDKSRWQQGNVFSCSVMHEALHNHYTQKSLSLSP
light: DIQMTQSPSSLSASVGDSVTITCQASTDISSHLNWYQQKPGKAPELLIYYGSHLLSGVPSRFSGSGSGTDFTFTISSLEAEDAATYYCGQGNRLPYTFGQGTKVEIERTVAAPSVFIFPPSDEQLKSGTASVVCLLNNFYPREAKVQWKVDNALQSGNSQESVTEQDSKDSTYSLSSTLTLSKADYEKHKVYACEVTHQGLSSPVTKSFNRGEC
B5 yielded a Kd with soluble human FcRn [5] of 210 nM.

B6: Fv-4-F1173 (antibody, human IgG1, kappa)
heavy: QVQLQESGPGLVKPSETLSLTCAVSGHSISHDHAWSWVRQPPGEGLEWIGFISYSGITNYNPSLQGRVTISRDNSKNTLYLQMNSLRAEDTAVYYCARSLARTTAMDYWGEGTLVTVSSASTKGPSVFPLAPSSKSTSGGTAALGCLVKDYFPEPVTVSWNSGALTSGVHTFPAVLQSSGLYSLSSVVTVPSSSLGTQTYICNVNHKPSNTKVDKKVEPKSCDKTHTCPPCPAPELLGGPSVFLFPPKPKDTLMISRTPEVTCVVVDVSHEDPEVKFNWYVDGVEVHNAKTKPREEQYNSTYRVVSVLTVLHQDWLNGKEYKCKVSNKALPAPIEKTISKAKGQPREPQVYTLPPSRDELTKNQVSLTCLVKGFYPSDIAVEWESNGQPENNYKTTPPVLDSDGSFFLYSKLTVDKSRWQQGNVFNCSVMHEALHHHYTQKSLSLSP
light: DIQMTQSPSSLSASVGDSVTITCQASTDISSHLNWYQQKPGKAPELLIYYGSHLLSGVPSRFSGSGSGTDFTFTISSLEAEDAATYYCGQGNRLPYTFGQGTKVEIERTVAAPSVFIFPPSDEQLKSGTASVVCLLNNFYPREAKVQWKVDNALQSGNSQESVTEQDSKDSTYSLSSTLTLSKADYEKHKVYACEVTHQGLSSPVTKSFNRGEC
Turning to B6, binding in the test with soluble human FcRn [4] was characterised by a dissociation constant (Kd) of 530 nM.

B7: Fv-4-F1171 (antibody, human IgG1, kappa)
heavy: QVQLQESGPGLVKPSETLSLTCAVSGHSISHDHAWSWVRQPPGEGLEWIGFISYSGITNYNPSLQGRVTISRDNSKNTLYLQMNSLRAEDTAVYYCARSLARTTAMDYWGEGTLVTVSSASTKGPSVFPLAPSSKSTSGGTAALGCLVKDYFPEPVTVSWNSGALTSGVHTFPAVLQSSGLYSLSSVVTVPSSSLGTQTYICNVNHKPSNTKVDKKVEPKSCDKTHTCPPCPAPELLGGPSVFLFPPKPKDTLMISRTPEVTCVVVDVSHEDPEVKFNWYVDGVEVHNAKTKPREEQYNSTYRVVSVLTVLHQDWLNGKEYKCKVSNKALPAPIEKTISKAKGQPREPQVYTLPPSRDELTKNQVSLTCLVKGFYPSDIAVEWESNGQPENNYKTTPPVLDSDGSFFLYSKLTVDKSRWQQGNVFNCSVLHEALHSHYTQKSLSLSP
light: DIQMTQSPSSLSASVGDSVTITCQASTDISSHLNWYQQKPGKAPELLIYYGSHLLSGVPSRFSGSGSGTDFTFTISSLEAEDAATYYCGQGNRLPYTFGQGTKVEIERTVAAPSVFIFPPSDEQLKSGTASVVCLLNNFYPREAKVQWKVDNALQSGNSQESVTEQDSKDSTYSLSSTLTLSKADYEKHKVYACEVTHQGLSSPVTKSFNRGEC
Regarding B7, the Kd in the test with soluble human FcRn [4] turned out to be 240 nM.

B8: Fv-4-F890 (antibody, human IgG1, kappa)
heavy: QVQLQESGPGLVKPSETLSLTCAVSGHSISHDHAWSWVRQPPGEGLEWIGFISYSGITNYNPSLQGRVTISRDNSKNTLYLQMNSLRAEDTAVYYCARSLARTTAMDYWGEGTLVTVSSASTKGPSVFPLAPSSKSTSGGTAALGCLVKDYFPEPVTVSWNSGALTSGVHTFPAVLQSSGLYSLSSVVTVPSSSLGTQTYICNVNHKPSNTKVDKKVEPKSCDKTHTCPPCPAPELLGGPSVFLFPPKPKDTLYISRTPEVTCVVVDVSHEDPEVKFNWYVDGVEVHNAKTKPREEQYNSTYRVVSVLTVLHQDWLNGKEYKCKVSNKALPAPIEKTISKAKGQPREPQVYTLPPSRDELTKNQVSLTCLVKGFYPSDIAVEWESNGQPENNYKTTPPVLDSDGSFFLYSKLTVDKSRWQQGNVFSCSVMHEALHYHVTQKSLSLSP
light: DIQMTQSPSSLSASVGDSVTITCQASTDISSHLNWYQQKPGKAPELLIYYGSHLLSGVPSRFSGSGSGTDFTFTISSLEAEDAATYYCGQGNRLPYTFGQGTKVEIERTVAAPSVFIFPPSDEQLKSGTASVVCLLNNFYPREAKVQWKVDNALQSGNSQESVTEQDSKDSTYSLSSTLTLSKADYEKHKVYACEVTHQGLSSPVTKSFNRGEC
notes: VH3-F890 (M252Y/N434Y/Y436V) and VL3-CK; also called Fv-4-890
B8 displayed a Kd in test [1] of 110 nM.

B9: Fv-4-F652 (antibody, human IgG1, kappa)
heavy: QVQLQESGPGLVKPSETLSLTCAVSGHSISHDHAWSWVRQPPGEGLEWIGFISYSGITNYNPSLQGRVTISRDNSKNTLYLQMNSLRAEDTAVYYCARSLARTTAMDYWGEGTLVTVSSASTKGPSVFPLAPSSKSTSGGTAALGCLVKDYFPEPVTVSWNSGALTSGVHTFPAVLQSSGLYSLSSVVTVPSSSLGTQTYICNVNHKPSNTKVDKKVEPKSCDKTHTCPPCPAPELLGGDSVFLFPPKPKDTLYISRTPEVTCVVVDVSHEDPEVKFNWYVDGVEVHNAKTKPREEQYNSTYRVVSVLTVLHQDWLNGKEYKCKVSNKALPAPIEKTISKAKGQPREPQVYTLPPSRDELTKNQVSLTCLVKGFYPSDIAVEWESNGQPENNYKTTPPVLDSDGSFFLYSKLTVDKSRWQQGNVFSCSVMHEALHYHYTQKSLSLSP
light: DIQMTQSPSSLSASVGDSVTITCQASTDISSHLNWYQQKPGKAPELLIYYGSHLLSGVPSRFSGSGSGTDFTFTISSLEAEDAATYYCGQGNRLPYTFGQGTKVEIERTVAAPSVFIFPPSDEQLKSGTASVVCLLNNFYPREAKVQWKVDNALQSGNSQESVTEQDSKDSTYSLSSTLTLSKADYEKHKVYACEVTHQGLSSPVTKSFNRGEC
notes: VH3-F652 (P238D/M252Y/N434Y) and VL3-CK
B9 showed an equilibrium dissociation constant (Kd) in test [6] of 240 nM.

B10: Fv-4-F1172 (antibody)
heavy: QVQLQESGPGLVKPSETLSLTCAVSGHSISHDHAWSWVRQPPGEGLEWIGFISYSGITNYNPSLQGRVTISRDNSKNTLYLQMNSLRAEDTAVYYCARSLARTTAMDYWGEGTLVTVSSASTKGPSVFPLAPSSKSTSGGTAALGCLVKDYFPEPVTVSWNSGALTSGVHTFPAVLQSSGLYSLSSVVTVPSSSLGTQTYICNVNHKPSNTKVDKKVEPKSCDKTHTCPPCPAPELLGGPSVFLFPPKPKDTLMISRTPEVTCVVVDVSHEDPEVKFNWYVDGVEVHNAKTKPREEQYNSTYRVVSVLTVLHQDWLNGKEYKCKVSNKALPAPIEKTISKAKGQPREPQVYTLPPSRDELTKNQVSLTCLVKGFYPSDIAVEWESNGQPENNYKTTPPVLDSDGSFFLYSKLTVDKSRWQQGNVFSCSVMHEALHHHYTRKELSLSP
light: DIQMTQSPSSLSASVGDSVTITCQASTDISSHLNWYQQKPGKAPELLIYYGSHLLSGVPSRFSGSGSGTDFTFTISSLEAEDAATYYCGQGNRLPYTFGQGTKVEIERTVAAPSVFIFPPSDEQLKSGTASVVCLLNNFYPREAKVQWKVDNALQSGNSQESVTEQDSKDSTYSLSSTLTLSKADYEKHKVYACEVTHQGLSSPVTKSFNRGEC
Regarding B10, in the test with soluble human FcRn [4], the dissociation constant (Kd) came to 400 nM.
